Data from US20220185896A1 (NEW YORK UNIVERSITY, published 2022).

B1: G9.2-17 mIgG1 (mouse IgG1 version of G9.2-17) (antibody, V domains shown)
VH: EVQLVESGGGLVQPGGSLRLSCAASGFTVSSSSIHWVRQAPGKGLEWVAYISSSSGYTYYADSVKGRFTISADTSKNTAYLQMNSLRAEDTAVYYCARYWSYPSWWPYRGMDYWGQGTLVTVSS
VL: DIQMTQSPSSLSASVGDRVTITCRASQSVSSAVAWYQQKPGKAPKLLIYSASSLYSGVPSRFSGSRSGTDFTLTISSLQPEDFATYYCQQSSTDPITFGQGTKVEIKR
notes: Mouse IgG1 backbone; also called mIgG1 G9.2-17; G9.2-17 IgG1 mouse mAb
B2: anti-Galectin-9 antibody G9.2-17 (IgG4) (antibody, V domains shown)
VH: B1 VH
VL: B1 VL
notes: also called G9.2-17 (Ig4); G9.2-17 hIgG4 Fab Arm Exchange mut

Columns and labels:
[1] = target: T1, human galectin-9 CRD2 domain (human, UniProt O00182 227-355, limits assumed); assay: ELISA, antibody titrated over immobilized Galectin-9 CRD2
T1 construct: domain: CRD2; also called CRD2 domain of galectin-9
T1 sequence (O00182 227-355 limits assumed): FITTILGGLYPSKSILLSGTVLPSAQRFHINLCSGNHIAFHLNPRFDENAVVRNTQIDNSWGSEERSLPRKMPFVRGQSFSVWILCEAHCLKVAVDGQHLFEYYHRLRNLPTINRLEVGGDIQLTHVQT

[2] = target: T2, human galectin-9 CRD1 domain (human, UniProt O00182 15-148, limits assumed); assay: bead based binding to human galectin-9 CRD1 and CRD2 domains
T2 construct: domain: CRD1; also called CRD1 domain of galectin-9 protein
T2 sequence (O00182 15-148 limits assumed): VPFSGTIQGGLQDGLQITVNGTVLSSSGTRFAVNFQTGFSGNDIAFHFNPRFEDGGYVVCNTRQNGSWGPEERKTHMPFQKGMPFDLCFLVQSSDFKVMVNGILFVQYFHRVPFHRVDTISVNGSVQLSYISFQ

[3] = target: T3, mouse galectin-9 CRD2 domain (mouse, UniProt O08573 225-353, limits assumed); assay: SPR, One Step method on a Pioneer SPR
T3 construct: domain: CRD2; also called mouse CRD2 domain
T3 sequence (O08573 225-353 limits assumed): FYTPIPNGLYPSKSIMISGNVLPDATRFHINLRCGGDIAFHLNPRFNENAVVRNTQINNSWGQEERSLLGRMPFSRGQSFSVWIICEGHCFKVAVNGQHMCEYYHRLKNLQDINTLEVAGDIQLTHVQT

[4] = target: T4, human galectin-9 on the cell surface (CRL-2134 cell line; patient tumor-derived cells) (human, UniProt O00182 1-355); assay: cell based saturation curve, surface staining of CRL-2134 cells (fraction of positive cells)
T4 construct: whole, on cells
T4 sequence (O00182 whole entry): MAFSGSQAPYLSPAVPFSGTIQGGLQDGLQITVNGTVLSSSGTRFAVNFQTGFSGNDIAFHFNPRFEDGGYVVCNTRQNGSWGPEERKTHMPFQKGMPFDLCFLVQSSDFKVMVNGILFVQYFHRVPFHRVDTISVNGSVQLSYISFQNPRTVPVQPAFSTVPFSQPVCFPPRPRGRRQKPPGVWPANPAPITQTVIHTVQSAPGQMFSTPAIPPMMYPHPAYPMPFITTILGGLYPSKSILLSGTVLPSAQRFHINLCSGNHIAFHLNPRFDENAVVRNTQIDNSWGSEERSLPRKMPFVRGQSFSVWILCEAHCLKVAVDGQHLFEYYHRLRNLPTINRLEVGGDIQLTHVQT

[5] = target: T1, human galectin-9 CRD2 domain; assay: bead based binding
[6] = target: T5, rat galectin-9 CRD2 domain (rat, UniProt P97840 226-354, limits assumed); assay: bead based binding
T5 construct: domain: CRD2; also called rat CRD2 domain
T5 sequence (P97840 226-354 limits assumed): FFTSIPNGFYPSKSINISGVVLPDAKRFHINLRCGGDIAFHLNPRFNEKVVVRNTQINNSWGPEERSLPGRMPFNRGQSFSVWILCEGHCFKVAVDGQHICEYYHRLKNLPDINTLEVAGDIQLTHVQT

[7] = target: T6, cynomolgus galectin-9 CRD2 domain (cynomolgus monkey, UniProt A0A7N9IHL9 227-355); assay: bead based binding
T6 construct: domain: CRD2; also called cynomolgus CRD2 domain; CRD2 domain of cynomolgus monkey galectin-9

[8] = target: T3, mouse galectin-9 CRD2 domain; assay: bead based binding

Row | Binder | Kd [1] [nM] | binding result [2] | Kd [3] [nM] | Kd [4] [nM] | Kd [5] [nM] | Kd [6] [nM] | Kd [7] [nM] | Kd [8] [nM]
1 | B1 | 0.45 | no binding | 3.05 | 2.9 | 0.18 | 0.35 | 0.3 | 0.3
2 | B2 | 0.42 | no binding | 1.8 | 0.41 | 0.15 |  |  | 0.3
